Source: the nanobody polyreactivity screen of Harvey et al. (2022)

Assay: yeast display, Sf9 membrane polyspecificity reagent, FACS + sequencing; frameworks hold sequencing errors
Summary of the method: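 In a synthetic yeast display library (Saccharomyces cerevisiae BJ5465), nanobody expression was induced with galactose for 36–48 hours. FACS gates were set low and high (top ~1%) using anti-HA fluorescence for expression and streptavidin fluorescence for binding of the Sf9 membrane reagent. Each polyreactivity label is drawn from the gate of origin.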

With “QVQLVESGGGLVQAGGSLRLSCAASGSTLSRYVMGWYRRAAGKERELVAAISSSGGSTYYADSVKGRFTISRDNAKNTVYLQMNSLKPEDTADYYCNVDHWRRGRSDNYWGQGTQVTVSS” the “polyreactivity (PSR sort gate)” value was “high polyreactivity”.
With “QVQLVESGGGLVQAGGSLRLSCAASGSTLSYYAMGWYRQAPGKEREWVAAISLSVGSTYYADSVKGRFTISRDNAKNTVYLQMNSLKPEETAVYYCAADDFYSGPFRGDYWGQGTQVTVSS” the “polyreactivity (PSR sort gate)” value was “low polyreactivity”.
For “QVQLVESGGGLVQAGGSLRLSCAASGSTLTFNAMGWYRQAPWKERELVAAISWSDTDTYYADSVKGRFTISRDNAKNTVYLQINSLKPEDTAVYYCAATLSAYEMDYWGQGTQVTVSS”, the “polyreactivity (PSR sort gate)” value was “low polyreactivity”.
For “QVQLVESGGGLVQAGGSLRLSCAASGSTLTRNTMGWYRQAPGKERELVATITRSGGSTYYADSVKGRFTISRDNAKNTVYLQMNSLKPEDTAVYYCAKRGRLRNYDYWGQGTQVTVSS”, the “polyreactivity (PSR sort gate)” value was “high polyreactivity”.
With “QVQLVESGGGLVQAGGSLRLSCAASGSTLVGYAMGWYRQAPGKERELVAAISSSGTSTYYADSVKGRFSISRDNAKNTVYLQMNSLKPEDTAVYYCSARQRGTYGYWGQGTQVTVSS” the “polyreactivity (PSR sort gate)” value was “high polyreactivity”.
With “QVQLVESGGGLVQAGGSLRLSCAASGSTLVTNAMGWYRQAPGKERELVAAITFSGGTTYYADSVKGLFTISRDNAKNTVYLQMNSLKPEDTAVYYCAAEIWLEYVGYDYWGQGTQVTLSS” the “polyreactivity (PSR sort gate)” value was “high polyreactivity”.
In the case of “QVQLVESGGGLVQAGGSLRLSCAASGSTLVTYAMGWYRQAPGKERELVARIDSGGSTNYADSVKGRFTISRDNAKNTVYLQMNSLKPEDTAVYYCSAGGGFYFIWTMDYWGQGTQVTVSS”, the “polyreactivity (PSR sort gate)” value is reported as “low polyreactivity”.
For “QVQLVESGGGLVQAGGSLRLSCAASGSTLVVNGMGWYRQAPGKERELVASISSDGSTNYADSVKGRFTISRDNAKNTVYLQMNSLKPEDTAVYYCAADEGTGQASLSSNLYDYWGQGTQVTVSS”, the “polyreactivity (PSR sort gate)” value was “low polyreactivity”.
In the case of “QVQLVESGGGLVQAGGSLRLSCAASGSTLVYYDMGWSRQAPGKERELVATITGTDSTYYADSVKGRFTISRDNAKNTVYLQMNSLKPEDTADCAADRAASRPDYDYWGQGTQVTVSS”, the “polyreactivity (PSR sort gate)” value is reported as “low polyreactivity”.
In the case of “QVQLVESGGGLVQAGGSLRLSCAASGSTLWANAMGWYRQAPGKERELVAAISWRGGRTYYADSVKGRFTISRDNAKNTVYLQMNSLKPEDTAVYYCNAVSYYRPRSDYGGQGTQVTVSS”, the “polyreactivity (PSR sort gate)” value is reported as “high polyreactivity”.
With “QVQLVESGGGLVQAGGSLRLSCAASGSTLWFNAMGWYRQAPGKERELVAAISFSSGSTYYADSVKGRFTISRDNAKNTVYLQMNSLKPEDTAVYYCAARLRWWGYDYWGQGTQVTVSS” the “polyreactivity (PSR sort gate)” value was “high polyreactivity”.
For “QVQLVESGGGLVQAGGSLRLSCAASGSTLWWYDMGWYRQAPGKERELVAAINSGGSTNYADSVKGRFTISRDNAKNTVYLQMNSLKPEDTAVYYCNTDGEVTYDYWGQGTQVTVSS”, the “polyreactivity (PSR sort gate)” value was “low polyreactivity”.
With “QVQLVESGGGLVQAGGSLRLSCAASGSTLYAYAMGWYRQAPGKERELVAAISRSGGSTYYAYSVKGRFTISRDNAKNTVYLQMNSLKPEDTAVYYCNAYYRYFRSIYDSWGQGTQVTVSS” the “polyreactivity (PSR sort gate)” value was “high polyreactivity”.
For “QVQLVESGGGLVQAGGSLRLSCAASGSTLYFYAMGWYRQAPGKERELVASISGTGGRTDYADSVKGRFTISRDNAKNTVYLQMNSLKPEDTAVYYCAARGLVYQSNRYYGYRDYYYWGQGTQVTVSS”, the “polyreactivity (PSR sort gate)” value was “high polyreactivity”.
With “QVQLVESGGGLVQAGGSLRLSCAASGSTLYGNVMGWFRQAPGKERELVATINRGGSTNYADSVKGRFTISRDNAKNTVYLQMNSLKPEDTAVYYCAVYHYSSYEYLGQGTQVTVSS” the “polyreactivity (PSR sort gate)” value was “low polyreactivity”.
In the case of “QVQLVESGGGLVQAGGSLRLSCAASGSTLYGYAMGWYRQAPGKERELVAAISSSGTRTYYADSVKGRFTISRDNAKNSVYLQMNSLKPEDTAVYYCNAYYYIPFEGRGYSKMDYWGQGTQVTVSS”, the “polyreactivity (PSR sort gate)” value is reported as “high polyreactivity”.
For “QVQLVESGGGLVQAGGSLRLSCAASGSTLYIYAKGWYRQAPGKETEFDADFSWSGGSTYYADSVKGRFTISRDYASNTVYLQMNSQKPEDTAVYNCNGDFTDSYLSRYDYWGQGTQVTVSS”, the “polyreactivity (PSR sort gate)” value was “low polyreactivity”.
In the case of “QVQLVESGGGLVQAGGSLRLSCAASGSTLYNYAMGWYRQAPGKERELVAAITKSGGRTYYADSVKGRFTISRDNAKNTVYLQMNSLKAEDTAVYYCAADRTQYARFDSWGQGTQVTVSS”, the “polyreactivity (PSR sort gate)” value is reported as “high polyreactivity”.
With “QVQLVESGGGLVQAGGSLRLSCAASGSTLYPNPMGWYRQAPGTERELVAAISGTGGGTYYADSVKGRFTISRDNAKNTVYLQMNSLKPEDTAVYYCAADYVFAWWGDYYWGQGTQVTVSS” the “polyreactivity (PSR sort gate)” value was “high polyreactivity”.
In the case of “QVQLVESGGGLVQAGGSLRLSCAASGSTLYRNGMGWYRQAPGKEMEFVAAISWSGASTYYADSVKGRFTISRDNAKNTVYLQMNSLKPEDTAVYYCNARGPTVYETHNYWGQGTQVTVSS”, the “polyreactivity (PSR sort gate)” value is reported as “low polyreactivity”.
For “QVQLVESGGGLVQAGGSLRLSCAASGSTLYVNAMGWYRQAPGKERELVAAISWSGGSTNYADSVKGRFTISRDNAKNTVYLQMNSLKPEDTAVYYCNVDSVVWDNAWYLYDYWGQGTQVTVSS”, the “polyreactivity (PSR sort gate)” value was “low polyreactivity”.
In the case of “QVQLVESGGGLVQAGGSLRLSCAASGSTLYWNAMGWYRQAPGKERELVAGISIGGRTNYADSVKGRFTISRDNAKNTVYLQMNSLKPEDTAVYYCNAENTYLGSRYRPYNYWGQGTQVTVSS”, the “polyreactivity (PSR sort gate)” value is reported as “low polyreactivity”.
With “QVQLVESGGGLVQAGGSLRLSCAASGSTLYWYAMGWYRQAPGKERELVAAITSGGNTYYADSVKGRFTISRDNAKNTVYLQMNSLKPEDTAVSYCAVGSFGVSAYSYYYWGQGTQVTVSS” the “polyreactivity (PSR sort gate)” value was “low polyreactivity”.
In the case of “QVQLVESGGGLVQAGGSLRLSCAASGSTLYYYAMGWYRQAPGKERELVAAISSGGRTYYADSVKGRFTISRDNAKNTVYLQMNSLKPEDTAVYYCNAVRYQKIFDYWGQGTQVTVSS”, the “polyreactivity (PSR sort gate)” value is reported as “high polyreactivity”.
For “QVQLVESGGGLVQAGGSLRLSCAASGSTLYYYAMGWYRQAPGKERELVATITNGGSTNYADSVKGRFTISRDNAKNTVYLQMNSLKPEDTAVYYCNARRGYWGSHYWGQGTQVTVSS”, the “polyreactivity (PSR sort gate)” value was “high polyreactivity”.
With “QVQLVESGGGLVQAGGSLRLSCAASGSTLYYYVMGWYRQAPGKERELVAAISSSGDSTYYADSVKGRFTISRDNAKNTVYLQMTSLKPEDTAVYYCNAGWYFYGETTDDYWGQGTQVTVSS” the “polyreactivity (PSR sort gate)” value was “low polyreactivity”.
For “QVQLVESGGGLVQAGGSLRLSCAASGSTMAPYAMGWYRQAPGTERELVASINWGGTTTYYADSVKGRFTISRDNAKNTVYLQMNSLKPEDTAVYYCAALGLRWGRSGYYYEYYYWGQGTQVTVSS”, the “polyreactivity (PSR sort gate)” value was “high polyreactivity”.
For “QVQLVESGGGLVQAGGSLRLSCAASGSTPDGYGMGWYRQAPGKERELVAVITIGGGRTYYADSVKGRFTISRDNAKNTVYLQMNSLKAVDTAVYYCAAKGWRRYYIGDYWGQGTQVTVSS”, the “polyreactivity (PSR sort gate)” value was “high polyreactivity”.
In the case of “QVQLVESGGGLVQAGGSLRLSCAASGSTQVYYDMGWYRQAPAKERELVATITGTDSTYYADSVKGRFTISRDNAKNTVYLQMNSLKPEDTADCAADRAASRPDYDYWGEGTQVTVSS”, the “polyreactivity (PSR sort gate)” value is reported as “low polyreactivity”.
In the case of “QVQLVESGGGLVQAGGSLRLSCAASGSTRRYVMAWYRQAPGKEMELVAAISYSGGSTYYADSVKGRFTISRDNAKNTVYLQMNSLKPEETAVYYCAADGYSGQYGGHMGYWGQGTQVTVSS”, the “polyreactivity (PSR sort gate)” value is reported as “high polyreactivity”.
For “QVQLVESGGGLVQAGGSLRLSCAASGSTRRYVMGWYRQAPWKERELVAAISYSGGSTYYADSVKGRFTISRDNAKNTVYLQMNSLKPEDTAVYYCAADGYSGQYGGHMGYWGQGTQVTVSS”, the “polyreactivity (PSR sort gate)” value was “high polyreactivity”.
In the case of “QVQLVESGGGLVQAGGSLRLSCAASGSTSAAYAMGWYRQAPGKERELVAAISKRGGSTYYADSVKGRFTISRDNAKNTVYLQMNSLKPEDTAVYYCNKYHFPGYWSRFDYWGQGTQVTVSS”, the “polyreactivity (PSR sort gate)” value is reported as “high polyreactivity”.
